The values that follow come from paper PMC11230231 (bioRxiv, 2024).

This experiment concerns the target integrin α5β1 on cells (human (endogenous in K562 and MCF10A), UniProt P08648;P05556). In words: flow cytometry on cells. A general note: A flow cytometer gives signals particle by particle.

integrin α5β1 on cells, sequence (P08648 42-1049, chain 1 of 2): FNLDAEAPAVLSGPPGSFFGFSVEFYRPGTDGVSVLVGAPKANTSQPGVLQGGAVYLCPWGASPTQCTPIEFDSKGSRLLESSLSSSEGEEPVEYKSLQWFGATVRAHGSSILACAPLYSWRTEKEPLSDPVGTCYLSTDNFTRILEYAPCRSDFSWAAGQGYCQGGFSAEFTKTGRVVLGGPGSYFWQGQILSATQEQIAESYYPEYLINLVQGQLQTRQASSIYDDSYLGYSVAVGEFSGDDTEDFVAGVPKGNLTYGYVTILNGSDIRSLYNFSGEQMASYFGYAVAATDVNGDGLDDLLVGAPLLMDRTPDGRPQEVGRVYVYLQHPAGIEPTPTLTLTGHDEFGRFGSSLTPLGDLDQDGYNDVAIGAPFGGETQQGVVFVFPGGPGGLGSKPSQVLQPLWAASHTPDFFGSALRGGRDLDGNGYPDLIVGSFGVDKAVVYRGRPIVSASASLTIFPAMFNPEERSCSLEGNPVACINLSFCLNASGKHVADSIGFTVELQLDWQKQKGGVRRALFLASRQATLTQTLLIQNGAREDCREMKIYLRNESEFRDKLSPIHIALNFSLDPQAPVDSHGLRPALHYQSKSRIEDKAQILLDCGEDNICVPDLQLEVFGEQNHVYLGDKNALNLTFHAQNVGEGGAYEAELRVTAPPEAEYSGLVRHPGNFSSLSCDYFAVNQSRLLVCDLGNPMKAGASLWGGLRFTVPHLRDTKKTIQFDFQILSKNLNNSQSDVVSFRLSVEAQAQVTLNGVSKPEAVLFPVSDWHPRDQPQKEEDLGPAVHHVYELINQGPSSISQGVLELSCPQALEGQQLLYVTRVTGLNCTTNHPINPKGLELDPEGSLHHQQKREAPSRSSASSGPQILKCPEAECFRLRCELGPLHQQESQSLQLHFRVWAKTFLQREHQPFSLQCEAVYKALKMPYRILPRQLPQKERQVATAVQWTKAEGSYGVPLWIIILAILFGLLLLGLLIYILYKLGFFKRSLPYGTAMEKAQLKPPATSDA
integrin α5β1 on cells, sequence (P05556 21-798, chain 2 of 2): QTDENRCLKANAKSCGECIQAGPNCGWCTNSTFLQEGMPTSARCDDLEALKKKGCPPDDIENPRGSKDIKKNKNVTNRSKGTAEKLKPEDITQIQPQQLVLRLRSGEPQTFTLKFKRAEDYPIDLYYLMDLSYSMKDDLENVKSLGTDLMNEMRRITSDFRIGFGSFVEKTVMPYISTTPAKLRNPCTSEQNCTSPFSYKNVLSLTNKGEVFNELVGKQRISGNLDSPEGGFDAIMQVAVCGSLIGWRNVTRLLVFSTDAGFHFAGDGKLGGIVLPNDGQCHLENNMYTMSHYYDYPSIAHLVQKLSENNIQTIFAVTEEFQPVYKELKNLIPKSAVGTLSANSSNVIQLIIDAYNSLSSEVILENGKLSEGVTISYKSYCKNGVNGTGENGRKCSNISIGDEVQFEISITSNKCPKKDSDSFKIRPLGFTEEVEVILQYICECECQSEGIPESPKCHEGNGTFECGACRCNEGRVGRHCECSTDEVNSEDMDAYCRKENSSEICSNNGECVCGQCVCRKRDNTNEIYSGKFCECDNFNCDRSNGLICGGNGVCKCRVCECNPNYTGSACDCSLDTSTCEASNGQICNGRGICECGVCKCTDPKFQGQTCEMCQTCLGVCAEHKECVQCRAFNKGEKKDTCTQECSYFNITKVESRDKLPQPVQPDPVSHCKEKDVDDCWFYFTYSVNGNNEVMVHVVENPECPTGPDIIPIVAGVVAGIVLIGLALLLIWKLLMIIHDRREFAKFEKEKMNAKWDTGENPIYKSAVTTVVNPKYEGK

For orientation: Kd means the free concentration of one partner at which half of the binding sites on the other are occupied at equilibrium, for simple one-to-one binding. For the molecule GRRGDGATGH [RGD peptide (GRRGDGATGH)], the Kd turned out to be 150 ± 20 µM.
